The values that follow come from patent US20150299255A1.

The experiment addresses lectin SNA1 from Sambucus nigra (Sambucus nigra), Q41358. Nature of the experiment: solid-phase assay, peptide titrated into wells containing bound lectin (FIG. 7).

Sequence of lectin SNA1 from Sambucus nigra (Sambucus nigra), Q41358 (Q41358 29-289 limits assumed, chain 1 of 2): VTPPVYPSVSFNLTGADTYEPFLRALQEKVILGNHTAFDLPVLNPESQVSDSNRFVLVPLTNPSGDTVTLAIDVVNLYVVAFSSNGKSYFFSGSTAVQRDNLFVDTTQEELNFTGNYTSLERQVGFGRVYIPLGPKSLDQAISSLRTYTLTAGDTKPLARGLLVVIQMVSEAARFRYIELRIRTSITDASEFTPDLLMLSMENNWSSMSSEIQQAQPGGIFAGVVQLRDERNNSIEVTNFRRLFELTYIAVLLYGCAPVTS
Sequence of lectin SNA1 from Sambucus nigra (Sambucus nigra), Q41358 (Q41358 309-570 limits assumed, chain 2 of 2): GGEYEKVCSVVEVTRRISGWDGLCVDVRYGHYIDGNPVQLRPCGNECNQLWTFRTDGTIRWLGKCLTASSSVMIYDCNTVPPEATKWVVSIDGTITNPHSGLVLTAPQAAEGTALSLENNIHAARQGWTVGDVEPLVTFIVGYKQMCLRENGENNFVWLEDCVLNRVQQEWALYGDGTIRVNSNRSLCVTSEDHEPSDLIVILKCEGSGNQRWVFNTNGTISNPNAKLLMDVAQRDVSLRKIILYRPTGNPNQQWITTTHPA

B1: biotinylated quadravalent SVH1C (peptide)
peptide: NPSHPLSGGGGS
chain: KKKK
modifications: not checked
In the case of B1, the amount of peptide at half-maximal binding (pmoles peptide per well) worked out at 25.
